# Measurements reported in IntAct's records for PubMed 25465129.
# B1: Amyloid beta A4 precursor protein-binding family B member 1-interacting protein (Mus musculus), Q8R5A3 (parent)
# chain: MGESNEDIDQMFSTLLGEMDLLTQSLGVDTLPPPDPNPPREEFNYTVGFKDLNESLNALEDQDLDALMADLVADISEAEQRTIQAQKESSQNQDRFALLRASDGQGTASGGYGASAAAIDVSHHEEALPPPPVEPMLDLLPPPPPPPPPELLSKEEEEAKAKADKIKLALEKLKEAKVKKLVVKVHMDDSSTKSLMVDERQLARDVLDNLFEKTHCDCNVDWCLYEIYPELQIERVFEDHENVVEVLSDWTRDTENKVLFLEKEERYAVFKNPQNFYLDNKGKKENKETNEKMNAKNKEYLLEESFCGTSIIVPELEGALYLKEDGKKSWKRRYFLLRASGIYYVPKGKTKTSRDLACFIQFENVNIYYGIQCKMKYKAPTDHCFVLKHPQIQKESQYIKYLCCDDARTLSQWVMGIRIAKYGKTLYDNYQRAVARAGLASRWTNLGTVGTPMPAQPSTVSSGLKTGTSQPNGQMPQAIPSAGPPLQEAQTQIETTKDEKQGLGNHSPGATRENHRPKSSLPPPPPPVRRSSDTCGSPALPSKVKGPGTCTFPHPPENFLPPPPPPPPEEDNSGLLPPPPPPPYLEEPPDFVPPPPPPAAVEDSALPPPPPPPPCLSQEITKSSPLPPKKPLVPPKRQENQGLPGAPGNSEQDFMSDLMKALQKKRGNIP
# B2: Ras-associated and pleckstrin homology domains-containing protein 1 (Homo sapiens), Q70E73 (parent)
# chain: MEQLSDEEIDHGAEEDSDKEDQDLDKMFGAWLGELDKLTQSLDSDKPMEPVKRSPLRQETNMANFSYRFSIYNLNEALNQGETVDLDALMADLCSIEQELSSIGSGNSKRQITETKATQKLPVSRHTLKHGTLKGLSSSSNRIAKPSHASYSLDDVTAQLEQASLSMDEAAQQSVLEDTKPLVTNQHRRTASAGTVSDAEVHSISNSSHSSITSAASSMDSLDIDKVTRPQELDLTHQGQPITEEEQAAKLKAEKIRVALEKIKEAQVKKLVIRVHMSDDSSKTMMVDERQTVRQVLDNLMDKSHCGYSLDWSLVETVSELQMERIFEDHENLVENLLNWTRDSQNKLIFMERIEKYALFKNPQNYLLGKKETAEMADRNKEVLLEECFCGSSVTVPEIEGVLWLKDDGKKSWKKRYFLLRASGIYYVPKGKAKVSRDLVCFLQLDHVNVYYGQDYRNKYKAPTDYCLVLKHPQIQKKSQYIKYLCCDDVRTLHQWVNGIRIAKYGKQLYMNYQEALKRTESAYDWTSLSSSSIKSGSSSSSIPESQSNHSNQSDSGVSDTQPAGHVRSQSIVSSVFSEAWKRGTQLEESSKARMESMNRPYTSLVPPLSPQPKIVTPYTASQPSPPLPPPPPPPPPPPPPPPPPPPPLPSQSAPSAGSAAPMFVKYSTITRLQNASQHSGALFKPPTPPVMQSQSVKPQILVPPNGVVPPPPPPPPPPTPGSAMAQLKPAPCAPSLPQFSAPPPPLKIHQVQHITQVAPPTPPPPPPIPAPLPPQAPPKPLVTIPAPTSTKTVAPVVTQAAPPTPTPPVPPAKKQPAFPASYIPPSPPTPPVPVPPPTLPKQQSFCAKPPPSPLSPVPSVVKQIASQFPPPPTPPAMESQPLKPVPANVAPQSPPAVKAKPKWQPSSIPVPSPDFPPPPPESSLVFPPPPPSPVPAPPPPPPPTASPTPDKSGSPGKKTSKTSSPGGKKPPPTPQRNSSIKSSSGAEHPEPKRPSVDSLVSKFTPPAESGSPSKETLPPPAAPPKPGKLNLSGVNLPGVLQQGCVSAKAPVLSGRGKDSVVEFPSPPSDSDFPPPPPETELPLPPIEIPAVFSGNTSPKVAVVNPQPQQWSKMSVKKAPPPTRPKRNDSTRLTQAEISEQPTMATVVPQVPTSPKSSLSVQPGFLADLNRTLQRKSITRHGSLSSRMSRAEPTATMDDMALPPPPPELLSDQQKAGYGGSHISGYATLRRGPPPAPPKRDQNTKLSRDW
# Variants of: B1
# Details: with tln1_mouse Tln1, P26039
# Chain of tln1_mouse Tln1, P26039 (P26039 whole entry): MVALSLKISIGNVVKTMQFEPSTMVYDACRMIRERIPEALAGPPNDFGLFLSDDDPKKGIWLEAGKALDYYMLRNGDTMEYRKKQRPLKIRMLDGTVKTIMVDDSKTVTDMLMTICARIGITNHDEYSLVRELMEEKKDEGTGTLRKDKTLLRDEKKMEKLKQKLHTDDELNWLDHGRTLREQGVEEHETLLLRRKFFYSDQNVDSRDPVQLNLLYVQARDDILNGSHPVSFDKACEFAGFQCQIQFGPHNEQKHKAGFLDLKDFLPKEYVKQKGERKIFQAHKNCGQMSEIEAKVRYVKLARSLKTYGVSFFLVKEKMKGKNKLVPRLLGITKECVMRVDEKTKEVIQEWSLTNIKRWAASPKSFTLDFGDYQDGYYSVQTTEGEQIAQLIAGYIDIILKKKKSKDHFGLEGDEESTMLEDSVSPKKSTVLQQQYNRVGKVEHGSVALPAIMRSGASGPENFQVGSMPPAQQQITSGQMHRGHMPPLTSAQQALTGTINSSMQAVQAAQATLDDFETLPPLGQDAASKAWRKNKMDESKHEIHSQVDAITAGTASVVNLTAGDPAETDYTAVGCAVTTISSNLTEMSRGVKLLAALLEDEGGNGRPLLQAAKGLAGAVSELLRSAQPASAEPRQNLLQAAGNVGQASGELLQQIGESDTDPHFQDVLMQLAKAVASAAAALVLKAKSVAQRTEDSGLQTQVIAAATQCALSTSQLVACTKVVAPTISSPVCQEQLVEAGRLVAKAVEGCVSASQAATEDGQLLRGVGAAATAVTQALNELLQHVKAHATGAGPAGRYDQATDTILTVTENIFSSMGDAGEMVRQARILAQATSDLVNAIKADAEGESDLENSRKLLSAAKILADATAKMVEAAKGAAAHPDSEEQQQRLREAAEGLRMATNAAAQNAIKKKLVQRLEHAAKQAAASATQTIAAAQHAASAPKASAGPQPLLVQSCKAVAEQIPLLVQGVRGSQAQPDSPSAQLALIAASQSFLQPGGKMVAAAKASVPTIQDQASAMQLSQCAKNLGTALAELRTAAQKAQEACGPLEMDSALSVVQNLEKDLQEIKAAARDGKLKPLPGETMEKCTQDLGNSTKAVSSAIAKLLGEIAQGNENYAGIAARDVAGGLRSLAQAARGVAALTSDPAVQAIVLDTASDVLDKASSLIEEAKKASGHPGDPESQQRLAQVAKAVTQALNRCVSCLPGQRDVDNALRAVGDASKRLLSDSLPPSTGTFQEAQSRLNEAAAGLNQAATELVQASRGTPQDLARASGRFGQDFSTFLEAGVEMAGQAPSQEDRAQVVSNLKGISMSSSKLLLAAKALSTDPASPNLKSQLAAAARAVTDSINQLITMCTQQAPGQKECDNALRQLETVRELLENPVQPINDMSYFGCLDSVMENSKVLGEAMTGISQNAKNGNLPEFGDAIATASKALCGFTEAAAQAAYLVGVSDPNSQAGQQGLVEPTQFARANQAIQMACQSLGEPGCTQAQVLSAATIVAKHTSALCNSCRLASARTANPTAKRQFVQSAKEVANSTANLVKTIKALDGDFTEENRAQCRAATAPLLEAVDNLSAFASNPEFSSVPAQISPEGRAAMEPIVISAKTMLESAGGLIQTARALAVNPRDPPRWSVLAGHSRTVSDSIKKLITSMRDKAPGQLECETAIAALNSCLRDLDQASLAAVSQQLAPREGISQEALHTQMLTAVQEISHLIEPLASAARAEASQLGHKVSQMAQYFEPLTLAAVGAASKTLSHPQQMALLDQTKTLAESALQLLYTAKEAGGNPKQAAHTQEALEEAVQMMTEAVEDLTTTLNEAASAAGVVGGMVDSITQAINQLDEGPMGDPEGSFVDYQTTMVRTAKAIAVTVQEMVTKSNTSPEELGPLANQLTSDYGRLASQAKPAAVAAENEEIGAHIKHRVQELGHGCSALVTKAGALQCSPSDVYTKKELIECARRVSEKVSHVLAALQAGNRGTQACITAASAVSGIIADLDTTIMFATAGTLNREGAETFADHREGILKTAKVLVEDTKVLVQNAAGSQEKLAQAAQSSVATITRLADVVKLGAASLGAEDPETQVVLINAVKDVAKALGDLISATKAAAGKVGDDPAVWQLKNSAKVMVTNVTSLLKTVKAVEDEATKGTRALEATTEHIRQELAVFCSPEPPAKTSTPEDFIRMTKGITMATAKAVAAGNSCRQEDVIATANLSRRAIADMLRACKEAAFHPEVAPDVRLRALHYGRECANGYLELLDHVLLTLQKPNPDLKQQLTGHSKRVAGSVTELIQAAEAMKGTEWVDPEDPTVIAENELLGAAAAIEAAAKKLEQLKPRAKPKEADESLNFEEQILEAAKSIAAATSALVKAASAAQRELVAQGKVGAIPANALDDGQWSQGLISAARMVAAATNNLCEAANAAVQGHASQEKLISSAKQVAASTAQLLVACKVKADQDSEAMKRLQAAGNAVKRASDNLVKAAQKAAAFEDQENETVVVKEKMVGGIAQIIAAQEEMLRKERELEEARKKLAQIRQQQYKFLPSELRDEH
row,effect of a mutation on the interaction,Variant
1,decreasing interaction strength,D9A
2,disrupting interaction strength,S13G
3,disrupting interaction strength,E18A
4,disrupting interaction strength,L15Y

# Variants of: B1
# Details: with tln1_mouse Tln1, P26039
# Remark: another data set of the same source
row,effect of a mutation on the interaction,Variant
1,decreasing interaction strength,S13G

# Variants of: B2
# Details: with tln1_mouse Tln1, P26039
row,effect of a mutation on the interaction,Variant
1,increasing interaction strength,G29S
